The target in this assay is purified recombinant PAPP-A free of STC2 (apo PAPP-A) (human, UniProt Q13219 82-1627, fluorescently labeled with Protein Labeling Kit RED-NHS (in MST)). Briefly: MST; in the presence of IGF2.

B1: IGFBP4 with C-terminal His6 tag (natural protein)
chain: DEAIHCPPCSEEKLARCRPPVGCEELVREPGCGCCATCALGLGMPCGVYTPRCGSGLRCYPPRGVEKPLHTLMHGQGVCMELAEIEAIQESLQPSDKDEGDHPNNSFSPCSAHDRRCLQKHFAKIRDRSTSGGKMKVNGAPREDARPVPQGSCQSELHRALERLAASQSRTHEDLYIIPIPNCDRNGNFHPKQCHPALDGQRGKCWCVDRKTGVKLPGGLEPKGELDCHQLADSFRE
For orientation: Kd means the free concentration of one partner at which half of the binding sites on the other are occupied at equilibrium, for simple one-to-one binding. As to B1, the Kd was around 160 nM.

The record behind these values is paper PMC9780223 (2022).
